± gives the uncertainty stated by the source.
Experiment: self-splicing fitness, log relative to wild type (ln ratio); higher = more splicing; Tetrahymena group I intron in knt gene, E. coli kanamycin selection, DiMSum; sequences stand for … in CUCUCU…GGAGGGAAAAGUUAUCAGGCAUGCACCUGGUAGCUAGUCUUUAAACCAAUAGAUUGCAUCGGUUUAAAAGGCAAGACCGUCAAAUUGCGGGAAAGGGGUCAACAGCCGUUCAGUACCAAGUCUCAGGGGAAACUUUGAGAUGGCCUUGCAAAGGGUAUGGUAAUAAGCUGACGGACAUGGUCCUAACCACGCAGCCAAGUCCUAAGUCAACAGAUCUUCUGUUGAUAUGGAUGCAGUUCACAGACUAAAUGUCGGUCGGGGAAGAUGUAUUCUUCUCAUAAGAUAUAGUCGGACCUCUCCUUAAUGGGAGCUAGCGGAUGAAGUGAUGCAACACUGGAGCCGCUGGGAACUAAUUUGUAUGCGAAAGUAUAUUGAUUAGUUUUGGAGUACUCGUGGUCG
Outline: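 Six replicate transformations of E. coli BL21(DE3) with a pET-22b(+) library were grown overnight at 37°C or 30°C. The library randomised all eight P1ex-region intron nucleotides, the intron lying in the knt kanamycin-resistance gene, and plates were LB agar with or without 25 μg/mL kanamycin plus 100 μg/mL carbenicillin, 50 μM IPTG and 0.2% rhamnose. Pooled colonies were amplicon-sequenced on an Illumina HiSeq 2500, and fitness is the DiMSum error-weighted combination of wild-type-normalised replicate fold changes, kanamycin versus none.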

| Sequence | self-splicing fitness (ln) (30 °C) | self-splicing fitness (ln) (37 °C) |
| --- | --- | --- |
| GAAGAGCAAUAUUACGCUCG | -2.32 ± 0.21 | -1.37 ± 0.21 |
| GACAAGCAAUAUUACGCAUA | -0.868 ± 0.11 | -0.12 ± 0.15 |
| GUCAAGCAAUAUUACGCCCG | -2.15 ± 0.21 | -1.11 ± 0.2 |
| GCGGAGCAAUAUUACGGAUG | -3.28 ± 0.17 | -1.67 ± 0.22 |
| GGCCAGCAAUAUUACGUAAA | -1.26 ± 0.11 | -0.35 ± 0.14 |
| GACAAGCAAUAUUACGCUAA | -3.01 ± 0.23 | -2.11 ± 0.2 |
| CAAGAGCAAUAUUACGUUUU | -3.35 ± 0.16 | -2.29 ± 0.15 |
| UCACAGCAAUAUUACGGCCU | -3.61 ± 0.25 | -1.99 ± 0.15 |
| AAGAAGCAAUAUUACGUACC | -0.392 ± 0.14 | 0.219 ± 0.19 |
| UUUUAGCAAUAUUACGUCAU | -3 ± 0.28 | -1.47 ± 0.29 |
| GACAAGCAAUAUUACGCAUU | -2.91 ± 0.089 | -1.96 ± 0.11 |
| CUAUAGCAAUAUUACGGACA | -2.77 ± 0.22 | -1.1 ± 0.29 |
| CUUGAGCAAUAUUACGUCUG | -0.671 ± 0.086 | -0.657 ± 0.11 |
| AUGGAGCAAUAUUACGCACC | -2.45 ± 0.4 | -1.26 ± 0.22 |
| CGUAAGCAAUAUUACGCCCU | -1.4 ± 0.16 | -0.426 ± 0.16 |
| GACGAGCAAUAUUACGUGAC | -2.77 ± 0.31 | -1.48 ± 0.26 |
| UCGAAGCAAUAUUACGUAAA | -1.72 ± 0.11 | -0.804 ± 0.14 |
| CAUGAGCAAUAUUACGUAGG | -1.82 ± 0.08 | -1.46 ± 0.093 |
| AACAAGCAAUAUUACGAGUC | -3.19 ± 0.12 | -1.89 ± 0.14 |
| CACCAGCAAUAUUACGGGUU | -1.82 ± 0.056 | -1.68 ± 0.081 |

| Sequence | self-splicing fitness (ln) (30 °C) | self-splicing fitness (ln) (37 °C) |
| --- | --- | --- |
| AUACAGCAAUAUUACGGCCC | -1.15 ± 0.19 | -0.184 ± 0.28 |
| GCUCAGCAAUAUUACGUAGC | -1.23 ± 0.12 | -1.43 ± 0.16 |
| UCGUAGCAAUAUUACGUAAC | -1.64 ± 0.34 |  |
| CACGAGCAAUAUUACGAAUA | -2.08 ± 0.12 | -2.23 ± 0.16 |
| GGUUAGCAAUAUUACGUGUC | -1.03 ± 0.097 | -0.323 ± 0.12 |
| CCGAAGCAAUAUUACGAUAU | -4.3 ± 0.35 | -3.21 ± 0.26 |
| AUCCAGCAAUAUUACGGAAC | -2.68 ± 0.18 | -1.06 ± 0.15 |
| CUCAAGCAAUAUUACGCUCA | -3.34 ± 0.26 | -2.49 ± 0.24 |
| UCGCAGCAAUAUUACGGACU | -2.14 ± 0.16 | -0.513 ± 0.16 |
| UUUUAGCAAUAUUACGGGUA | -1.75 ± 0.3 | -0.417 ± 0.28 |
| AUAUAGCAAUAUUACGGACU | -1.04 ± 0.11 | -0.14 ± 0.16 |
| CUUAAGCAAUAUUACGCUGU | -4.48 ± 0.34 | -2.3 ± 0.23 |
| UAAUAGCAAUAUUACGGCGG | -1.27 ± 0.15 | -0.245 ± 0.16 |
| UGUAAGCAAUAUUACGUAAG | -1.86 ± 0.15 | -1.84 ± 0.11 |
| CAGGAGCAAUAUUACGGGCG | -0.762 ± 0.099 | 0.0758 ± 0.14 |
| AUAGAGCAAUAUUACGGAGG | -3.24 ± 0.22 | -1.8 ± 0.23 |
| UCGCAGCAAUAUUACGAUAC | -3.52 ± 0.46 | -2.76 ± 0.34 |
| UAAAAGCAAUAUUACGCGAC | -3.73 ± 0.33 | -2.64 ± 0.24 |
| AAAAAGCAAUAUUACGGUGG | -2.28 ± 0.1 | -1.77 ± 0.13 |
| AUCUAGCAAUAUUACGUGUA | -2.44 ± 0.12 | -1.31 ± 0.11 |

| Sequence | self-splicing fitness (ln) (30 °C) | self-splicing fitness (ln) (37 °C) |
| --- | --- | --- |
| UUCCAGCAAUAUUACGAGGC | -3.72 ± 0.35 | -2.58 ± 0.27 |
| UCCUAGCAAUAUUACGGGAC | -3.32 ± 0.22 | -2.73 ± 0.2 |
| CGAGAGCAAUAUUACGGACU | -1.89 ± 0.29 | -2.14 ± 0.38 |
| GUACAGCAAUAUUACGGACU | -1.74 ± 0.062 | -0.781 ± 0.081 |
| GAGGAGCAAUAUUACGUCUU | -3.65 ± 0.2 | -2.35 ± 0.23 |
| GGACAGCAAUAUUACGGUCC | -3.67 ± 0.26 | -2.28 ± 0.23 |
| AAUCAGCAAUAUUACGAUAG | -1.3 ± 0.1 | -0.239 ± 0.1 |
| GAAAAGCAAUAUUACGUUUC | -2.95 ± 0.17 | -2.69 ± 0.25 |
| AAGCAGCAAUAUUACGCGCU | -2.53 ± 0.11 | -1.73 ± 0.11 |
| GUCUAGCAAUAUUACGUUGA | -1.64 ± 0.2 | -1.12 ± 0.23 |
| AGCUAGCAAUAUUACGUGAG | -2.57 ± 0.12 | -2.28 ± 0.16 |
| GGGCAGCAAUAUUACGCGAC | -2.37 ± 0.13 | -2.17 ± 0.21 |
| CGUAAGCAAUAUUACGGAAU | -3.8 ± 0.43 | -1.85 ± 0.22 |
| GGAUAGCAAUAUUACGCGAU | -3.65 ± 0.3 | -2.91 ± 0.47 |
| CGGCAGCAAUAUUACGGUCA | -0.0453 ± 0.068 | -0.156 ± 0.083 |
| UUCAAGCAAUAUUACGUCGG | -0.722 ± 0.067 | -0.516 ± 0.081 |
| AUCCAGCAAUAUUACGUCUU | -0.371 ± 0.065 | 0.716 ± 0.081 |
| UCGUAGCAAUAUUACGAAGU | -3.58 ± 0.47 | -3.06 ± 0.35 |
| CCGUAGCAAUAUUACGUCAC | -1.02 ± 0.27 |  |
| AUAGAGCAAUAUUACGUAGU | -1.69 ± 0.12 | -0.153 ± 0.15 |
